Laboratory results as given in patent US5712366, “Fabrication of nanoscale materials using self-assembling proteins” (The United States of America as represented by the …, dated 1998).

Tests used:
[1] = target: T1, polypeptide C2 (amino acid sequence of FIG. 4C); test: surface plasmon resonance, one species immobilized onto a gold film
T1 chain: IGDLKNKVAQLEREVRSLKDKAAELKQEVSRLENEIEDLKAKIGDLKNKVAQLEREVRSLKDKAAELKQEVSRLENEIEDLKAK
Protocol: Next, the interaction of polypeptide A2 with polypeptides B2 and C2, when both of the components were free in solution and when one species was immobilized onto a gold film, was examined. The immobilization tests were performed to measure the rates of association and dissociation between the complexes. Surface plasmon resonance was used to detect minute changes in refractive index that accompanied a specific binding event in the immediate vicinity of the metal surface. […] After an initial increase in refractive index due to solvent exchange, it is seen that the rate of association for the A2-B2 complex was more rapid and that the equilibrium response was achieved sooner. […] For the A2-C2 interaction, kass=3.46×10^3, kdiss=[…], and K_a=1.45×10^6.

[2] = target: T2, polypeptide B2 (amino acid sequence of FIG. 4B); test: turbidity at 400 nm on mixing at equal concentrations; gel analysis of the precipitate
T2 chain: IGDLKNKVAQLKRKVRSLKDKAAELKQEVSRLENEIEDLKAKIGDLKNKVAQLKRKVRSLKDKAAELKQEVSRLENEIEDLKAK
Source text: First, the interaction between polypeptides A2 and B2 was investigated using turbidity measurements at 400 nm. […] When the polypeptides were mixed at equal concentrations, a rapid increase in turbidity was seen. This was attributed to specific heterodimer formation, which subsequently associated into higher order structures that precipitated in solution. […] No similar increase in the turbidity of the homodimer solutions was observed prior to mixing.

binding result [1]: binds
binding result [2]: binds
B1: polypeptide A2 (amino acid sequence of FIG. 4A) (designed binder)
chain: IGDLENEVAQLEREVRSLEDEAAELEQKVSRLKNEIEDLKAEIGDLENEVAQLEREVRSLEDEAAELEQKVSRLKNEIEDLKAE
